Source: PMC5778602

Target: T1, CstF-50 (full length, affinity tag removed) (human), Q05048
T1 chain: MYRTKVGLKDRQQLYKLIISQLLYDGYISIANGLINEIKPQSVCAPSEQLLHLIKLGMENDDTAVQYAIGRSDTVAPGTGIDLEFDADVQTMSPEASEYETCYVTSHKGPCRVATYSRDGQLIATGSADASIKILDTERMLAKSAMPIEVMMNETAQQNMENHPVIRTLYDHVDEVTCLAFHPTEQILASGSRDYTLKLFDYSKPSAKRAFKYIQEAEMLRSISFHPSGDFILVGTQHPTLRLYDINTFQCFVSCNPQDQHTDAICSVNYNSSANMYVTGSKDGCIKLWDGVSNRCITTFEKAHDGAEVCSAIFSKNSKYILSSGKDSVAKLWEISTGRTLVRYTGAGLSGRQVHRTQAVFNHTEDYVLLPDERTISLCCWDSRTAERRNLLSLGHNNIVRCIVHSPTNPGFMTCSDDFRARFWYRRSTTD
Assay: SEC-MALS
Details: remark: other sources report otherwise

B1: CstF-50 (full length, affinity tag removed), Q05048 1-431 (natural protein)
chain: T1 chain
A stoichiometry N of 2 was found for B1 in this work.
